The text below walks through data of patent publication US20130005646A1 (Novo Nordisk, published 2013).

Holding throughout (test): cell-based or functional assay
For test [1], the target named is T1, human amylin 3(a) receptor (human calcitonin receptor + RAMP-3) (human, UniProt P30988 25-474; O60896 24-148).
T1 sequence (looked up) 1: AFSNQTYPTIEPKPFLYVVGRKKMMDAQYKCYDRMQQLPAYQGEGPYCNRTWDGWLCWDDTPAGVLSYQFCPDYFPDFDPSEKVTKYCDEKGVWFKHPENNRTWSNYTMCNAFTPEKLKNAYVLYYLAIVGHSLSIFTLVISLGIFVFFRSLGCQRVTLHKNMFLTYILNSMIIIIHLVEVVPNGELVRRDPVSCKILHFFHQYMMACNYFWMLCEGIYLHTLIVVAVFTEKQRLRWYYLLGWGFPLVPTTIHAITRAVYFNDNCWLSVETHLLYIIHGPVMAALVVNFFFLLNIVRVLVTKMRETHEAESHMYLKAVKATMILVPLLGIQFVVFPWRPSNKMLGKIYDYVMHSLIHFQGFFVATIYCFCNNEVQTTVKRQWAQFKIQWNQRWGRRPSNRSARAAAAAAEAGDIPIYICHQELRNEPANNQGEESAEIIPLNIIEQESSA
T1 sequence (looked up) 2: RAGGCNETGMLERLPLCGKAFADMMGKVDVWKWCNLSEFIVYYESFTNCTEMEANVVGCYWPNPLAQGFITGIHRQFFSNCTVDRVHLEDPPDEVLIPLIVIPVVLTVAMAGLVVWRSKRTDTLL

The target in test [2] is T2, human calcitonin (a) receptor (human, UniProt P30988 25-474).
T2 sequence (looked up): T1 sequence (looked up) 1

Test [3] addresses T3, rat amylin 3(a) receptor (rat calcitonin(a) receptor + rat RAMP3) (rat, UniProt P32214 25-516; Q9JJ73 23-147).
T3 sequence (looked up) 1: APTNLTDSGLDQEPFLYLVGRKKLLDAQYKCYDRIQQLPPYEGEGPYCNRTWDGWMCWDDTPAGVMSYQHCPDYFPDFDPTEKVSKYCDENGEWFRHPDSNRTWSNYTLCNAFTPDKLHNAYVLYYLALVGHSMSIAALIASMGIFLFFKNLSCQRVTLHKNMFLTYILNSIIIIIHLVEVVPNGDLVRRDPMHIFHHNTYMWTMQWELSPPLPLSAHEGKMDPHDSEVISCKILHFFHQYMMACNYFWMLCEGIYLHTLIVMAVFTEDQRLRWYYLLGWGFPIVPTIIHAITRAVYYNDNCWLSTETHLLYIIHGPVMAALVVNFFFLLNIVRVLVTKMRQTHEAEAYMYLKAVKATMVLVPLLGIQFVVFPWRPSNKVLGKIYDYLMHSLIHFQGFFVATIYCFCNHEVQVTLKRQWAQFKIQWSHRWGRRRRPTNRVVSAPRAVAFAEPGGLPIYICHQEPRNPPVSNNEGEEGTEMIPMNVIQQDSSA
T3 sequence (looked up) 2: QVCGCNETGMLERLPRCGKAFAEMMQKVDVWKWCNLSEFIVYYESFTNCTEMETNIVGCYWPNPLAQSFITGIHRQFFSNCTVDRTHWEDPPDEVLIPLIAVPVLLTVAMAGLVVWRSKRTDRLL

Test [4] deals with T4, rat calcitonin (a) receptor (rat, UniProt P32214 25-516).
T4 sequence (looked up): T3 sequence (looked up) 1

Starred links: 1 amine or outer side, 2 acyl side, 3 side chain; linkers in the order of their positions; H or OH if unused. Positions of bridges follow the written chain, without caps; N, C: chain ends. *: point of attachment. C20 diacid = O=C(O)CCCCCCCCCCCCCCCCCCC(=O)*; γGlu = O=C(O)[C@H](CCC(=O)[*:2])N[*:1]

B1: N-alpha-[(S)-4-Carboxy-4-(19-carboxynonadecanoylamino)butyryl]-His-[His1,Glu14,His17]-pramlintide (peptide)
peptide: {C20 diacid-γGlu}-HHCNTATCATQRLAEFLHHSSNNFGPILPPTNVGSNTY-NH2
modifications: disulfide 3-8
SMILES: CC[C@H](C)[C@H](NC(=O)[C@@H]1CCCN1C(=O)CNC(=O)[C@H](Cc1ccccc1)NC(=O)[C@H](CC(N)=O)NC(=O)[C@H](CC(N)=O)NC(=O)[C@H](CO)NC(=O)[C@H](CO)NC(=O)[C@H](Cc1c[nH]cn1)NC(=O)[C@H](Cc1c[nH]cn1)NC(=O)[C@H](CC(C)C)NC(=O)[C@H](Cc1ccccc1)NC(=O)[C@H](CCC(=O)O)NC(=O)[C@H](C)NC(=O)[C@H](CC(C)C)NC(=O)[C@H](CCCNC(=N)N)NC(=O)[C@H](CCC(N)=O)NC(=O)[C@@H](NC(=O)[C@H](C)NC(=O)[C@@H]1CSSC[C@H](NC(=O)[C@H](Cc2c[nH]cn2)NC(=O)[C@H](Cc2c[nH]cn2)NC(=O)CC[C@H](NC(=O)CCCCCCCCCCCCCCCCCCC(=O)O)C(=O)O)C(=O)N[C@@H](CC(N)=O)C(=O)N[C@@H]([C@@H](C)O)C(=O)N[C@@H](C)C(=O)N[C@@H]([C@@H](C)O)C(=O)N1)[C@@H](C)O)C(=O)N[C@@H](CC(C)C)C(=O)N1CCC[C@H]1C(=O)N1CCC[C@H]1C(=O)N[C@H](C(=O)N[C@@H](CC(N)=O)C(=O)N[C@H](C(=O)NCC(=O)N[C@@H](CO)C(=O)N[C@@H](CC(N)=O)C(=O)N[C@H](C(=O)N[C@@H](Cc1ccc(O)cc1)C(N)=O)[C@@H](C)O)C(C)C)[C@@H](C)O
For B1, in test [1], the “Amylin receptor human EC50” value amounted to 0.111 nM. In addition, in test [2], the “CTa receptor human EC50” value was 0.166 nM. Also, the “Amylin receptor rat EC50” value in test [3] came to 0.147 nM. The “CTa receptor rat EC50” value in test [4] is 0.221 nM.

B2: N-alpha-[(S)-4-Carboxy-4-(19-carboxynonadecanoylamino)butyryl]-[His1,Glu14,His17]-pramlintide (peptide)
peptide: {C20 diacid-γGlu}-HCNTATCATQRLAEFLHHSSNNFGPILPPTNVGSNTY-NH2
modifications: disulfide 2-7; not fully specified; printed as N-alpha-[(S)-4-Carboxy-4-(19-carboxynonadecanoylamino)butyryl]-[His1,Glu14,His17]-pramlintide
With B2, in test [1], the “Amylin receptor human EC50” value worked out at 0.131 nM. The “CTa receptor human EC50” value in test [2] amounted to 0.126 nM. Besides, the “Amylin receptor rat EC50” value in test [3] came to 0.187 nM. The “CTa receptor rat EC50” value in test [4] amounted to 1.17 nM.

B3: N-alpha-[(S)-4-Carboxy-4-(19-carboxynonadecanoylamino)butyryl]-His-His-[His1,Glu14,His17,Ala25,Pro26,Ser28,Ser29]-pramlintide (peptide)
peptide: {C20 diacid-γGlu}-HHHCNTATCATQRLAEFLHHSSNNFGAPLSSTNVGSNTY-NH2
modifications: disulfide 4-9
SMILES: CC(C)C[C@H](NC(=O)[C@H](CCCNC(=N)N)NC(=O)[C@H](CCC(N)=O)NC(=O)[C@@H](NC(=O)[C@H](C)NC(=O)[C@@H]1CSSC[C@H](NC(=O)[C@H](Cc2c[nH]cn2)NC(=O)[C@H](Cc2c[nH]cn2)NC(=O)[C@H](Cc2c[nH]cn2)NC(=O)CC[C@H](NC(=O)CCCCCCCCCCCCCCCCCCC(=O)O)C(=O)O)C(=O)N[C@@H](CC(N)=O)C(=O)N[C@@H]([C@@H](C)O)C(=O)N[C@@H](C)C(=O)N[C@@H]([C@@H](C)O)C(=O)N1)[C@@H](C)O)C(=O)N[C@@H](C)C(=O)N[C@@H](CCC(=O)O)C(=O)N[C@@H](Cc1ccccc1)C(=O)N[C@@H](CC(C)C)C(=O)N[C@@H](Cc1c[nH]cn1)C(=O)N[C@@H](Cc1c[nH]cn1)C(=O)N[C@@H](CO)C(=O)N[C@@H](CO)C(=O)N[C@@H](CC(N)=O)C(=O)N[C@@H](CC(N)=O)C(=O)N[C@@H](Cc1ccccc1)C(=O)NCC(=O)N[C@@H](C)C(=O)N1CCC[C@H]1C(=O)N[C@@H](CC(C)C)C(=O)N[C@@H](CO)C(=O)N[C@@H](CO)C(=O)N[C@H](C(=O)N[C@@H](CC(N)=O)C(=O)N[C@H](C(=O)NCC(=O)N[C@@H](CO)C(=O)N[C@@H](CC(N)=O)C(=O)N[C@H](C(=O)N[C@@H](Cc1ccc(O)cc1)C(N)=O)[C@@H](C)O)C(C)C)[C@@H](C)O
For the molecule B3, in test [1], the “Amylin receptor human EC50” value was 0.105 nM. Also, in test [2], the “CTa receptor human EC50” value came to 0.31 nM. For the same molecule, the “Amylin receptor rat EC50” value in test [3] was 0.132 nM. Further, the “CTa receptor rat EC50” value in test [4] was found to be 0.824 nM.

B4: N-alpha-[(S)-4-Carboxy-4-(19-carboxynonadecanoylamino)butyryl]-His-His-[His1,Glu14,His17,Arg35]-pramlintide (peptide)
peptide: {C20 diacid-γGlu}-HHHCNTATCATQRLAEFLHHSSNNFGPILPPTNVGSRTY-NH2
modifications: disulfide 4-9
SMILES: CC[C@H](C)[C@H](NC(=O)[C@@H]1CCCN1C(=O)CNC(=O)[C@H](Cc1ccccc1)NC(=O)[C@H](CC(N)=O)NC(=O)[C@H](CC(N)=O)NC(=O)[C@H](CO)NC(=O)[C@H](CO)NC(=O)[C@H](Cc1c[nH]cn1)NC(=O)[C@H](Cc1c[nH]cn1)NC(=O)[C@H](CC(C)C)NC(=O)[C@H](Cc1ccccc1)NC(=O)[C@H](CCC(=O)O)NC(=O)[C@H](C)NC(=O)[C@H](CC(C)C)NC(=O)[C@H](CCCNC(=N)N)NC(=O)[C@H](CCC(N)=O)NC(=O)[C@@H](NC(=O)[C@H](C)NC(=O)[C@@H]1CSSC[C@H](NC(=O)[C@H](Cc2c[nH]cn2)NC(=O)[C@H](Cc2c[nH]cn2)NC(=O)[C@H](Cc2c[nH]cn2)NC(=O)CC[C@H](NC(=O)CCCCCCCCCCCCCCCCCCC(=O)O)C(=O)O)C(=O)N[C@@H](CC(N)=O)C(=O)N[C@@H]([C@@H](C)O)C(=O)N[C@@H](C)C(=O)N[C@@H]([C@@H](C)O)C(=O)N1)[C@@H](C)O)C(=O)N[C@@H](CC(C)C)C(=O)N1CCC[C@H]1C(=O)N1CCC[C@H]1C(=O)N[C@H](C(=O)N[C@@H](CC(N)=O)C(=O)N[C@H](C(=O)NCC(=O)N[C@@H](CO)C(=O)N[C@@H](CCCNC(=N)N)C(=O)N[C@H](C(=O)N[C@@H](Cc1ccc(O)cc1)C(N)=O)[C@@H](C)O)C(C)C)[C@@H](C)O
As for B4, the “Amylin receptor human EC50” value in test [1] stood at 0.192 nM. For the same molecule, the “CTa receptor human EC50” value in test [2] was 0.429 nM. In addition, in test [3], the “Amylin receptor rat EC50” value worked out at 0.133 nM. Also, in test [4], the “CTa receptor rat EC50” value worked out at 1.34 nM.

B5: N-alpha-[(S)-4-Carboxy-4-(19-carboxynonadecanoylamino)butyryl]-His-His-[His1,Arg3,Glu14,His17]-pramlintide (peptide)
peptide: {C20 diacid-γGlu}-HHHCRTATCATQRLAEFLHHSSNNFGPILPPTNVGSNTY-NH2
modifications: disulfide 4-9
SMILES: CC[C@H](C)[C@H](NC(=O)[C@@H]1CCCN1C(=O)CNC(=O)[C@H](Cc1ccccc1)NC(=O)[C@H](CC(N)=O)NC(=O)[C@H](CC(N)=O)NC(=O)[C@H](CO)NC(=O)[C@H](CO)NC(=O)[C@H](Cc1c[nH]cn1)NC(=O)[C@H](Cc1c[nH]cn1)NC(=O)[C@H](CC(C)C)NC(=O)[C@H](Cc1ccccc1)NC(=O)[C@H](CCC(=O)O)NC(=O)[C@H](C)NC(=O)[C@H](CC(C)C)NC(=O)[C@H](CCCNC(=N)N)NC(=O)[C@H](CCC(N)=O)NC(=O)[C@@H](NC(=O)[C@H](C)NC(=O)[C@@H]1CSSC[C@H](NC(=O)[C@H](Cc2c[nH]cn2)NC(=O)[C@H](Cc2c[nH]cn2)NC(=O)[C@H](Cc2c[nH]cn2)NC(=O)CC[C@H](NC(=O)CCCCCCCCCCCCCCCCCCC(=O)O)C(=O)O)C(=O)N[C@@H](CCCNC(=N)N)C(=O)N[C@@H]([C@@H](C)O)C(=O)N[C@@H](C)C(=O)N[C@@H]([C@@H](C)O)C(=O)N1)[C@@H](C)O)C(=O)N[C@@H](CC(C)C)C(=O)N1CCC[C@H]1C(=O)N1CCC[C@H]1C(=O)N[C@H](C(=O)N[C@@H](CC(N)=O)C(=O)N[C@H](C(=O)NCC(=O)N[C@@H](CO)C(=O)N[C@@H](CC(N)=O)C(=O)N[C@H](C(=O)N[C@@H](Cc1ccc(O)cc1)C(N)=O)[C@@H](C)O)C(C)C)[C@@H](C)O
As for B5, the “Amylin receptor human EC50” value in test [1] was determined as 0.0985 nM. The “CTa receptor human EC50” value in test [2] was 0.157 nM. For the same molecule, the “Amylin receptor rat EC50” value in test [3] was determined as 0.261 nM. For the same molecule, the “CTa receptor rat EC50” value in test [4] is 1.29 nM.
